{"source": "patent EP1407030B1", "target": "plasminogen", "assay": "cell-based or functional assay"}
{"substance": "phage-displayed recombinant K2S (K2S-gp3 fusion protein on VCSM13 filamentous phage) (from UniProt P00750 209-562)", "values": [{"measurement": "fibrinogen-dependent enzymatic activity (amidolytic assay with plasminogen and S-2251)", "result": "< 0.25", "unit": "IU/ml"}]}
